Molecular target: CD33 on MV-4-11 human AML cells (human) (UniProt P20138)
Experiment: flow cytometry, cell-cell binding: HA-positive erythroid cells within the CFSE-positive MV4-11 population (negative control)

Sequence of UniProt P20138 (P20138 18-364 limits assumed): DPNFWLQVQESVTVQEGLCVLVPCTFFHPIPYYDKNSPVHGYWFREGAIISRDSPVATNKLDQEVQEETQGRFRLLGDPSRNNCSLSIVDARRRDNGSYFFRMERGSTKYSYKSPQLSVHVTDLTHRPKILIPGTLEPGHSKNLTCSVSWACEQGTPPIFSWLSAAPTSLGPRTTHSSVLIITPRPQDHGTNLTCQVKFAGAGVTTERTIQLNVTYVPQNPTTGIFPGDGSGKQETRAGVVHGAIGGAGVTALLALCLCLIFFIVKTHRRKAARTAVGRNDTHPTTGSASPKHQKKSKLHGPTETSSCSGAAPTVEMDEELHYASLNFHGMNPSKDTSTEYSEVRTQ

percent of erythroid cells positive for binding to MV4-11: 10.7%
Substance: HA-GPA (HA tag-Glycophorin A) expressed on erythroid cells, negative control
